B1: Azoarcus group I ribozyme (parent)
chain: GUGCCUUGCGCCGGGAAACCACGCAAGGGAUGGUGUCAAAUUCGGCGAAACCUAAGCGCCCGCCCGGGCGUAUGGCAACGCCGAGCCAAGCUUCGGCGCCUGCGCCGAUGAAGGUGUAGAGACUAGACGGCACCCACCUAAGGCAAACGCUAUGGUGAAGGCAUAGUCCAGGGAGUGGCGAAAGUCACACAAACCGG

Variants of: B1
Assay: reverse-splicing fitness (ratio to wild type); higher = more active; in vitro selection; Mg2+ level not given
Outline: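 An in vitro group I ribozyme library with randomized positions was T7-transcribed and gel-purified. In triplicate, 10 pmol RNA in EPPS pH 7.5 was reacted with 50 pmoles of a 30-nt RNA substrate for 1 h at 37 °C across several added MgCl2 levels (1–48 mM), then stopped with EDTA. Products were reverse transcribed from a substrate-complementary primer, PCR-amplified and sequenced (HiSeq 4000). Fitness is a variant's read proportion after selection over that before, normalised to wild type.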

Row | Variant | reverse-splicing fitness
1 | GUGCCUUGCGCCGGGAAACCACGCAAGGGAUGGUGUCAAAUUCGGCGAAACCUAAGCGCCCGCCCGGGCGUAUGGCAACGCUGAGCCAAGCUUCGGCGCCUGCGCCGAUGGAGGUGUAGCGACUAGACGGCACCCACCUAAGGCUAACGGUAUGGUGAAGGCAUAGUCUAGGGAGGGGCGAAAGUCACACAAACCGG [C82U A111G A120C A145U C150G C169U U176G] | 0.00471
2 | GUGCCUUGCGCCGGGAAACCACGCAAGGGAUGGUGUCAAAUUCGGCGAAACCUAAGCGCCCGCCCGGGCGUAUGGCAACGCUGAGCCAAGCUUCGGCGCCUGCGCCGAUGGAGGUGUAGCGACUAGACGGCACCCACCUAAGGCUAACGGUAUGGUGAAGGCAUAGUCUAGGGAGCGGCGAAAGUCACACAAACCGG [C82U A111G A120C A145U C150G C169U U176C] | 0.0124
3 | GUGCCUUGCGCCGGGAAACCACGCAAGGGAUGGUGUCAAAUUCGGCGAAACCUAAGCGCCCGCCCGGGCGUAUGGCAACGCUGAGCCAAGCUUCGGCGCCUGCGCCGAUGGAGGUGUAGCGACUAGACGGCACCCACCUAAGGCUAACGGUAUGGUGAAGGCAUAGUCUAGGGAGAGGCGAAAGUCACACAAACCGG [C82U A111G A120C A145U C150G C169U U176A] | 0.00625
4 | GUGCCUUGCGCCGGGAAACCACGCAAGGGAUGGUGUCAAAUUCGGCGAAACCUAAGCGCCCGCCCGGGCGUAUGGCAACGCUGAGCCAAGCUUCGGCGCCUGCGCCGAUGGAGGUGUAGCGACUAGACGGCACCCACCUAAGGCUAACGUUAUGGUGAAGGCAUAGUCCAGGGAGGGGCGAAAGUCACACAAACCGG [C82U A111G A120C A145U C150U U176G] | 0.00565
5 | GUGCCUUGCGCCGGGAAACCACGCAAGGGAUGGUGUCAAAUUCGGCGAAACCUAAGCGCCCGCCCGGGCGUAUGGCAACGCUGAGCCAAGCUUCGGCGCCUGCGCCGAUGGAGGUGUAGCGACUAGACGGCACCCACCUAAGGCUAACGUUAUGGUGAAGGCAUAGUCCAGGGAGAGGCGAAAGUCACACAAACCGG [C82U A111G A120C A145U C150U U176A] | 0.0147
6 | GUGCCUUGCGCCGGGAAACCACGCAAGGGAUGGUGUCAAAUUCGGCGAAACCUAAGCGCCCGCCCGGGCGUAUGGCAACGCUGAGCCAAGCUUCGGCGCCUGCGCCGAUGGAGGUGUAGCGACUAGACGGCACCCACCUAAGGCUAACGUUAUGGUGAAGGCAUAGUCCAGGGAGCGGCGAAAGUCACACAAACCGG [C82U A111G A120C A145U C150U U176C] | 0.0223
7 | GUGCCUUGCGCCGGGAAACCACGCAAGGGAUGGUGUCAAAUUCGGCGAAACCUAAGCGCCCGCCCGGGCGUAUGGCAACGCUGAGCCAAGCUUCGGCGCCUGCGCCGAUGGAGGUGUAGCGACUAGACGGCACCCACCUAAGGCUAACGUUAUGGUGAAGGCAUAGUCCAGGGAGUGGCGAAAGUCACACAAACCGG [C82U A111G A120C A145U C150U] | 0.0338
8 | GUGCCUUGCGCCGGGAAACCACGCAAGGGAUGGUGUCAAAUUCGGCGAAACCUAAGCGCCCGCCCGGGCGUAUGGCAACGCUGAGCCAAGCUUCGGCGCCUGCGCCGAUGGAGGUGUAGCGACUAGACGGCACCCACCUAAGGCUAACGUUAUGGUGAAGGCAUAGUCGAGGGAGCGGCGAAAGUCACACAAACCGG [C82U A111G A120C A145U C150U C169G U176C] | 0.0121
9 | GUGCCUUGCGCCGGGAAACCACGCAAGGGAUGGUGUCAAAUUCGGCGAAACCUAAGCGCCCGCCCGGGCGUAUGGCAACGCUGAGCCAAGCUUCGGCGCCUGCGCCGAUGGAGGUGUAGCGACUAGACGGCACCCACCUAAGGCUAACGUUAUGGUGAAGGCAUAGUCGAGGGAGGGGCGAAAGUCACACAAACCGG [C82U A111G A120C A145U C150U C169G U176G] | 0.00414
10 | GUGCCUUGCGCCGGGAAACCACGCAAGGGAUGGUGUCAAAUUCGGCGAAACCUAAGCGCCCGCCCGGGCGUAUGGCAACGCUGAGCCAAGCUUCGGCGCCUGCGCCGAUGGAGGUGUAGCGACUAGACGGCACCCACCUAAGGCUAACGUUAUGGUGAAGGCAUAGUCGAGGGAGAGGCGAAAGUCACACAAACCGG [C82U A111G A120C A145U C150U C169G U176A] | 0.0133
11 | GUGCCUUGCGCCGGGAAACCACGCAAGGGAUGGUGUCAAAUUCGGCGAAACCUAAGCGCCCGCCCGGGCGUAUGGCAACGCUGAGCCAAGCUUCGGCGCCUGCGCCGAUGGAGGUGUAGCGACUAGACGGCACCCACCUAAGGCUAACGCUAUGGUGAAGGCAUAGUCAAGGGAGUGGCGAAAGUCACACAAACCGG [C82U A111G A120C A145U C169A] | 0.00556
12 | GUGCCUUGCGCCGGGAAACCACGCAAGGGAUGGUGUCAAAUUCGGCGAAACCUAAGCGCCCGCCCGGGCGUAUGGCAACGCUGAGCCAAGCUUCGGCGCCUGCGCCGAUGGAGGUGUAGCGACUAGACGGCACCCACCUAAGGCUAACGCUAUGGUGAAGGCAUAGUCGAGGGAGUGGCGAAAGUCACACAAACCGG [C82U A111G A120C A145U C169G] | 0.00646
13 | GUGCCUUGCGCCGGGAAACCACGCAAGGGAUGGUGUCAAAUUCGGCGAAACCUAAGCGCCCGCCCGGGCGUAUGGCAACGCUGAGCCAAGCUUCGGCGCCUGCGCCGAUGGAGGUGUAGCGACUAGACGGCACCCACCUAAGGCUAACGUUAUGGUGAAGGCAUAGUCAAGGGAGGGGCGAAAGUCACACAAACCGG [C82U A111G A120C A145U C150U C169A U176G] | 0.00488
14 | GUGCCUUGCGCCGGGAAACCACGCAAGGGAUGGUGUCAAAUUCGGCGAAACCUAAGCGCCCGCCCGGGCGUAUGGCAACGCUGAGCCAAGCUUCGGCGCCUGCGCCGAUGGAGGUGUAGCGACUAGACGGCACCCACCUAAGGCUAACGUUAUGGUGAAGGCAUAGUCAAGGGAGAGGCGAAAGUCACACAAACCGG [C82U A111G A120C A145U C150U C169A U176A] | 0.0106
15 | GUGCCUUGCGCCGGGAAACCACGCAAGGGAUGGUGUCAAAUUCGGCGAAACCUAAGCGCCCGCCCGGGCGUAUGGCAACGCUGAGCCAAGCUUCGGCGCCUGCGCCGAUGGAGGUGUAGCGACUAGACGGCACCCACCUAAGGCUAACGUUAUGGUGAAGGCAUAGUCAAGGGAGCGGCGAAAGUCACACAAACCGG [C82U A111G A120C A145U C150U C169A U176C] | 0.00827
